Values joined by “and” are separate entries in the source; they are usually repeats but may differ in a detail not shown here. Equal entries are not always repeated.
Experiments:
Test in all cases: MTT cytotoxicity assay, 48 h, alone and in combination (IC50 and Combination Index)
Format in all cases: cell-based
KB cell line = conditions: in combination with Cisplatin; paired with Cisplatin conc. of the same table row
HT-29 cell line = tested on: HT-29 cell line
MDA-MB-231 cell line = tested on: MDA-MB-231 cell line
Protocol: The cell were kept in contact with the recombinant lectin of SEQ ID NO: 1 and the chemotherapy agent for 48 h and the cytotoxic effect (percentage cytotoxicity) was measured. The cytotoxic effect was determined by well-known colorimetric MTT assay (Mossman, T. 1983 Rapid colorimetric assay for cellular growth and survival: application to proliferation and cytotoxicity assays Journal of Immunological Methods, volume 65, pages 55-63) for assessing cell metabolic activity.
Based on percentage cytotoxicity data, IC50 values were determined using the software GraphPad Prism version 4.01.
Combination Index (CI) values were determined for each drug concentration combination. The CI values were calculated based on the IC50 values using the formula as given in below.
A study was performed to determine the effect of the concentration of the recombinant lectin represented by SEQ ID NO: 1 on the IC50 of Paclitaxel for cytotoxicity in MDA-MB-231 cells. Conversely the effect of the concentration of Paclitaxel on the IC50 of the recombinant lectin represented by SEQ ID NO: 1.
Similarly another study was performed for Carboplatin in combination with the recombinant lectin of SEQ ID NO: 1.
In a further study, MDA-MB-231 cells were treated with Paclitaxel (0.001 nM-10 nM) in combination with SEQ ID NO: 1(2.5 μg/mL-80 μg/mL) for 48 h. Similarly another set of cells were treated with Carboplatin (10 μM-1000 μM) in combination with SEQ ID NO: 1 (2.5 μg/mL-80 μg/mL).

PA-1 cell line = tested on: PA-1 cell line
[1] = in combination with Paclitaxel, paired with Paclitaxel conc. of the same table row

B1: SEQ ID NO: 1: recombinant lectin protein, variant of the S. rolfsii lectin amino acid sequence (reported as Rec-2 in WO 2010/095143) (protein)
chain: TYKITVRVYQTNPDAFFHPVEKTVWKYANGGTWTITDDQHVLTMGGSGTSGTLRFHADNGESFTATFGVHNYKRWCDIVTNLAADETGMVINQQYYSQKNREEARERQLSNYQVKNAKGRNFQIVYTEAEGNDLHANLIIG
B1 was tested, and the “Conc. of SEQ ID NO: 1 showing synergistic effect” value (“Conc. of SEQ ID NO” for short) (KB cell line) was 10 to 90 µg/mL and 5 µg/mL, the “IC50 of SEQ ID NO: 1” value (HT-29 cell line; 5-FU 0 μM) was 25.470 µg/mL and the “IC50 of SEQ ID NO: 1” value (HT-29 cell line; 5-FU 5 μM) was 22.990 µg/mL. For the same molecule, the “IC50 of SEQ ID NO: 1” value (HT-29 cell line; 5-FU 10 μM) was 6.374 µg/mL, the “IC50 of SEQ ID NO: 1” value (HT-29 cell line; 5-FU 50 μM) was 1.667 µg/mL and the “IC50 of SEQ ID NO: 1” value (HT-29 cell line; 5-FU 100 μM) was 1.387 µg/mL. For the same molecule, the “IC50 of SEQ ID NO: 1” value (HT-29 cell line; 5-FU 150 μM) was 1.216 µg/mL, the “IC50 of SEQ ID NO: 1” value (HT-29 cell line; 5-FU 200 μM) was 1.334 µg/mL and the “IC50 of SEQ ID NO: 1” value (HT-29 cell line; Irinotecan 0 μM) was 18.320 µg/mL. The “IC50 of SEQ ID NO: 1” value (HT-29 cell line; Irinotecan 0.1 μM) was 73.480 µg/mL, the “IC50 of SEQ ID NO: 1” value (HT-29 cell line; Irinotecan 1 μM) was 36.280 µg/mL and the “IC50 of SEQ ID NO: 1” value (HT-29 cell line; Irinotecan 5 μM) was 23.520 µg/mL. The “IC50 of SEQ ID NO: 1” value (HT-29 cell line; Irinotecan 10 μM) was 9.995 µg/mL, the “IC50 of SEQ ID NO: 1” value (HT-29 cell line; Irinotecan 25 μM) was 8.258 µg/mL and the “IC50 of SEQ ID NO: 1” value (HT-29 cell line; Irinotecan 50 μM) was 1.395 µg/mL. The “Conc. of SEQ ID NO” value (HT-29 cell line; in combination with Irinotecan, paired with Irinotecan conc. of the same table row) was 40 to 80 µg/mL and 20 µg/mL, the “IC50 of SEQ ID NO: 1” value (MDA-MB-231 cell line; Carboplatin 0 μM) was 14.310 µg/mL and the “IC50 of SEQ ID NO: 1” value (MDA-MB-231 cell line; Carboplatin 10 μM) was 7.188 µg/mL. For the same molecule, the “IC50 of SEQ ID NO: 1” value (MDA-MB-231 cell line; Carboplatin 50 μM) was 3.584 µg/mL, the “IC50 of SEQ ID NO: 1” value (MDA-MB-231 cell line; Carboplatin 100 μM) was 4.290 µg/mL and the “IC50 of SEQ ID NO: 1” value (MDA-MB-231 cell line; Carboplatin 200 μM) was 2.073 µg/mL. For the same molecule, the “IC50 of SEQ ID NO: 1” value (MDA-MB-231 cell line; Carboplatin 500 μM) was 0.523 µg/mL, the “IC50 of SEQ ID NO: 1” value (MDA-MB-231 cell line; Carboplatin 1000 μM) was 0.044 µg/mL and the “IC50 of SEQ ID NO: 1” value (MDA-MB-231 cell line; Paclitaxel 0 nM) was 19.800 µg/mL. The “IC50 of SEQ ID NO: 1” value (MDA-MB-231 cell line; Paclitaxel 0.001 nM) was 25.370 µg/mL, the “IC50 of SEQ ID NO: 1” value (MDA-MB-231 cell line; Paclitaxel 0.01 nM) was 21.220 µg/mL and the “IC50 of SEQ ID NO: 1” value (MDA-MB-231 cell line; Paclitaxel 0.1 nM) was 13.700 µg/mL. The “IC50 of SEQ ID NO: 1” value (MDA-MB-231 cell line; Paclitaxel 1 nM) was 8.720 µg/mL, the “IC50 of SEQ ID NO: 1” value (MDA-MB-231 cell line; Paclitaxel 5 nM) was 5.775 µg/mL and the “IC50 of SEQ ID NO: 1” value (MDA-MB-231 cell line; Paclitaxel 10 nM) was 2.248 µg/mL. The “Conc. of SEQ ID NO” value (MDA-MB-231 cell line; in combination with Carboplatin, paired with Carboplatin conc. of the same table row) was 5 to 80 µg/mL and 2.5 µg/mL, the “Conc. of SEQ ID NO” value (MDA-MB-231 cell line; [1]) was 20 to 80 µg/mL and 10 µg/mL and the “IC50 of SEQ ID NO: 1” value (PA-1 cell line; Cisplatin 0 μM) was 12.070 µg/mL. The “IC50 of SEQ ID NO: 1” value (PA-1 cell line; Cisplatin 0.01 μM) was 8.520 µg/mL, the “IC50 of SEQ ID NO: 1” value (PA-1 cell line; Cisplatin 0.1 μM) was 6.033 µg/mL and the “IC50 of SEQ ID NO: 1” value (PA-1 cell line; Cisplatin 0.5 μM) was 0.912 µg/mL. For the same molecule, the “IC50 of SEQ ID NO: 1” value (PA-1 cell line; Cisplatin 1 μM) was 0.321 µg/mL, the “IC50 of SEQ ID NO: 1” value (PA-1 cell line; Cisplatin 5 μM) was 0.0036 µg/mL and the “IC50 of SEQ ID NO: 1” value (PA-1 cell line; Cisplatin […]) was 4.455 µg/mL. The “IC50 of SEQ ID NO: 1” value (PA-1 cell line; Paclitaxel 0 nM) was 8.822 µg/mL, the “IC50 of SEQ ID NO: 1” value (PA-1 cell line; Paclitaxel 0.01 nM) was 5.794 µg/mL and the “IC50 of SEQ ID NO: 1” value (PA-1 cell line; Paclitaxel 0.1 nM) was 6.545 µg/mL. The “IC50 of SEQ ID NO: 1” value (PA-1 cell line; Paclitaxel 0.5 nM) was 3.917 µg/mL, the “IC50 of SEQ ID NO: 1” value (PA-1 cell line; Paclitaxel 1 nM) was 3.031 µg/mL and the “IC50 of SEQ ID NO: 1” value (PA-1 cell line; Paclitaxel 5 nM) was 0.709 µg/mL. The “IC50 of SEQ ID NO: 1” value (PA-1 cell line; Paclitaxel […]) was 4.893 µg/mL and the “Conc. of SEQ ID NO” value (PA-1 cell line; [1]) was 1 to 20 µg/mL.
